Measured values published in article doi:10.1101/164319.

Molecular target: Arp2/3 complex from strain Arp2cys-Arp3cys, labeled with Alexa 488 and Alexa 594 (Schizosaccharomyces pombe) (UniProt P78774)
Assay: FRET or BRET

Chain of UniProt P78774 (P78774 whole entry, looked up, one chain of several): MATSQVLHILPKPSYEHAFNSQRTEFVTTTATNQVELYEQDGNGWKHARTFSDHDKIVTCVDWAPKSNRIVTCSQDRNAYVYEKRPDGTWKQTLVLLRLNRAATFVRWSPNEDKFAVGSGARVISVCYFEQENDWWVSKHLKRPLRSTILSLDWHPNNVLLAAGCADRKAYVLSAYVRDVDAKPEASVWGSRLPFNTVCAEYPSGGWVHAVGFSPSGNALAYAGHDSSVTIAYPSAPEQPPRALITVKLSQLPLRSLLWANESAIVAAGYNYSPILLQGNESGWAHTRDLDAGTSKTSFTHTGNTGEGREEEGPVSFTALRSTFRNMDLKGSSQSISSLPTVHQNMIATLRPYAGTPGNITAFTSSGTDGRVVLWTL

“S. pombe Wsp1-CA (541SC–574D) (from UniProt O36027 541-574) (domain or fragment)” gave an increase of mean ETeff at 20 μM CA of 0.06.
“VCA crosslinked to an actin monomer (actin-VCA) (from UniProt O36027 497-574; P68139 1-377) (complex)” showed an increase of mean ETeff at 2 μM actin-VCA of 0.12.
“S. pombe Wsp1p-VCA (497Q–574D) (from UniProt O36027 497-574) (domain or fragment)” showed an increase of mean ETeff at 20 μM VCA of 0.13.
